Data on three molecules can be found in patent US20070054848A1 (published 2007).

B2: endogenous p75 of mouse post-natal (P9) cerebellum / cerebellar neurons (receptor, UniProt Q9Z0W1 32-427, looked up)
chain: KETCSTGMYTHSGECCKACNLGEGVAQPCGANQTVCEPCLDSVTFSDVVSATEPCKPCTECLGLQSMSAPCVEADDAVCRCSYGYYQDEETGRCEACSVCGVGSGLVFSCQDKQNTVCEECPEGTYSDEANHVDPCLPCTVCEDTERQLRECTPWADAECEEIPGRWITRSTPPEGSDVTTPSTQEPEAPPERDLIASTVADTVTTVMGSSQPVVTRGTADNLIPVYCSILAAVVVGLVAYIAFKRWNSCKQNKQGANSRPVNQTPPPEGEKLHSDSGISVDSQSLHDQQTHTQTASGQALKGDGNLYSSLPLTKREEVEKLLNGDTWRHLAGELGYQPEHIDSFTHEACPVRALLASWGAQDSATLDALLAALRRIQRADIVESLCSESTATSPV
notes: Endogenous protein in lysates; also called p75NTR

Test [1] deals with T1, amino-terminally FLAG-tagged human p75 (human, UniProt P08138 29-427).
T1 construct: also called FLAG-tagged p75; FLAG-p75; not shown: FLAG tag
T1 sequence: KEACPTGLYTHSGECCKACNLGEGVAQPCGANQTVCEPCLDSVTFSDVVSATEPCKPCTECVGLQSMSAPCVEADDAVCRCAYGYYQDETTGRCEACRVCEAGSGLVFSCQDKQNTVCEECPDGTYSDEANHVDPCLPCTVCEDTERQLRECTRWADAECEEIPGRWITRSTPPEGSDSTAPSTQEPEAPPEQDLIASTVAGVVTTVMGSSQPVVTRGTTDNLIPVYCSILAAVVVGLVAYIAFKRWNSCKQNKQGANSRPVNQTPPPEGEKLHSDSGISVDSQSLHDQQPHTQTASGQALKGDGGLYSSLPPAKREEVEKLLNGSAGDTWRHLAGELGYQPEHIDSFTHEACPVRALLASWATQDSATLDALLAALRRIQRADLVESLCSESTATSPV
The experiment in a line: co-precipitation: p75 precipitated from transfected 293T cells (anti-FLAG, protein A sepharose) incubated with GST-Rho GDI, anti-GST blot.

Test [2] has as its target T2, Nogo receptor, endogenous in P9 cerebellum (UniProt Q99PI8 27-447).
T2 construct: also called NgR; the Nogo receptor
T2 sequence (looked up): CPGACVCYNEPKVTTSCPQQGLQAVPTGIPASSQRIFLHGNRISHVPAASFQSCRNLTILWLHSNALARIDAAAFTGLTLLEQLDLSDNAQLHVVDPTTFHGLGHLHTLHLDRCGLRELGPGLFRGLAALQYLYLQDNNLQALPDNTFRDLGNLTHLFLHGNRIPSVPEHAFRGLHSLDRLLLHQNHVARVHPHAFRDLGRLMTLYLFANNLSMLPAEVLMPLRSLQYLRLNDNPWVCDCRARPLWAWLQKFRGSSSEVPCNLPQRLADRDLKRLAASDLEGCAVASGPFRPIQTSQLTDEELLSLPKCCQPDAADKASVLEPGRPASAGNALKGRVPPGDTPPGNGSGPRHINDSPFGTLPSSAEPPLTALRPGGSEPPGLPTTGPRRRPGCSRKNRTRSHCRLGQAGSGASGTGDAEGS
Nature of the test: figure legend (FIG. 11C).

For test [3], the target named is B2. Nature of the test: figure legend (FIG. 6C): co-immunoprecipitation of p75 and Rho GDI from cerebellar neurons.
Experimental: The lysates were centrifuged at 13,000×g for 20 min, and the supernatants were collected. […] The immunocomplex was collected with protein A sepharose (Amersham Pharmacia). The suspension was centrifuged at 1,000×g for 5 min. The pellets were washed 4 times with lysis buffer, and subjected to SDS-PAGE, followed by immunoblot analysis using anti-Rho GDIα antibody (Sigma) or anti-RhoA antibody (Santa Cruz Biotechnology).

B1: recombinant human GST-Rho GDI (other)
chain: MAEQEPTAEQLAQIAAENEEDEHSVNYKPPAQKSIQEIQELDKDDESLRKYKEALLGRVAVSADPNVPNVVVTGLTLVCSSAPGPLELDLTGDLESFKKQSFVLKEGVEYRIKISFRVNREIVSGMKYIQHTYRKGVKIDKTDYMVGSYGPRAEEYEFLTPVEEAPKGMLARGSYSIKSRFTDDDKTDHLSWEWNLTIKKDWKD
notes: Bought (Cytoskeleton); also called recombinant Rho GDI; not shown: glutathione S-transferase (GST) fusion moiety
For the molecule B1, the binding result in test [1] is given as “binds”.
For B2, the binding result in test [2] is “binds”.

B3: Rho GDI, endogenous in mouse post-natal cerebellar neurons (other, UniProt Q99PT1 2-204, looked up)
chain: AEQEPTAEQLAQIAAENEEDEHSVNYKPPAQKSIQEIQELDKDDESLRKYKEALLGRVAVSADPNVPNVIVTRLTLVCSTAPGPLELDLTGDLESFKKQSFVLKEGVEYRIKISFRVNREIVSGMKYIQHTYRKGVKIDKTDYMVGSYGPRAEEYEFLTPMEEAPKGMLARGSYNIKSRFTDDDKTDHLSWEWNLTIKKEWKD
As to B3, the binding result in test [3] was “binds”.
